The source of these data is patent US20030091584A1.

Where a chain is given by its changes, count along the chain named. “And” between values parts separate entries of the source, which are not always exact repeats. Equal values may be shown once.

Assay [1] deals with RSV F protein (immobilized on the BIAcore sensor chip) (respiratory syncytial virus). Kind of assay: BIAcore, immobilized F protein. (In general: SPR reads the build-up and loss of mass on a sensor chip optically.)
For another assay, the target named is Bac-F. Nature of the assay: BIAcore, mAb vs Bac-F (1:1).

Sequence of RSV F protein (immobilized on the BIAcore sensor chip) (respiratory syncytial virus) (P03420 26-524): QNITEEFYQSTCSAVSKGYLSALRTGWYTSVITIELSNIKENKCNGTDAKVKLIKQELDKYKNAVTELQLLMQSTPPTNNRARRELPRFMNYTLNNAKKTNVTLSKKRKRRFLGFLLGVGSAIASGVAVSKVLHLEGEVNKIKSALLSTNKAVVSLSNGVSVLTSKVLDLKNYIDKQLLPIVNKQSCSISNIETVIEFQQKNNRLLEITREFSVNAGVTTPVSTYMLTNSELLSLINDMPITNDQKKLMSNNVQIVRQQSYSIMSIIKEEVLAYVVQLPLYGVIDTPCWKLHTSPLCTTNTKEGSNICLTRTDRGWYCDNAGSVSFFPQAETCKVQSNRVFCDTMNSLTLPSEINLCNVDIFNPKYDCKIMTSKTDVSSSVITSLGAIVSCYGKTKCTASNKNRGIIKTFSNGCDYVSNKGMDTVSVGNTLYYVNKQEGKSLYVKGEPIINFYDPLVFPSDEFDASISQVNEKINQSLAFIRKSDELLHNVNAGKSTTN

B1: AFFF (monoclonal antibody) (antibody, V domains shown)
VH: QVTLRESGPALVKPTQTLTLTCTFSGFSLSTAGMSVGWIRQPPGKALEWLADIWWDDKKDYNPSLKSRLTISKDTSKNQVVLKVTNMDPADTATYYCARSMITNFYFDVWGAGTTVTVSS
VL: DIQMTQSPSTLSASVGDRVTITCSASSSVGYMHWYQQKPGKAPKLLIYDTFKLASGVPSRFSGSGSGTEFTLTISSLQPDDFATYYCFQFSGYPFTFGGGTKLEIK
As usually defined, the koff is the first-order rate constant of dissociation. A word on the kon: it is the rate constant with which the complex forms. On to B1, for which, in assay [1], the off-rate (koff) is 0.000274 s⁻¹ and 0.000266 s⁻¹ and 0.000206 s⁻¹; the on-rate (kon) was 108000 M⁻¹ s⁻¹ and 96000 M⁻¹ s⁻¹ and 124000 M⁻¹ s⁻¹.

B2: A8c7 (monoclonal antibody) (antibody, V domains shown)
VH: B1 VH with D60S, S67D, S100D, T103F, F105W, A112Q
VL: B1 VL with S28R, F51R, K52Y, L53Q, A54S, F90G
One may read the Kd as a measure of binding affinity in units of concentration. Low readings indicate tighter binding, high ones weaker binding. As for B2, in the assay with Bac-F, the Kd came to 0.21 nM, the koff was 8.75e-05 s⁻¹, the kon is 417000 M⁻¹ s⁻¹ and the number in parentheses after KD (fold against SYNAGIS = 1) stood at 19 fold.

B3: P12f2 (monoclonal antibody) (antibody, V domains shown)
VH: B1 VH with A32P, D60H, S67D, S100D, T103F
VL: B1 VL with A25L, S28R, K52Y, A54S, F90G, L103V
Consider B3, for which, in the assay with Bac-F, the dissociation constant (Kd) is 0.31 nM, the off-rate constant (koff) came out at 0.000128 s⁻¹, the kon came out at 407000 M⁻¹ s⁻¹ and the number in parentheses after KD (fold against SYNAGIS = 1) is 13 fold.

B4: A17d4 (monoclonal antibody) (antibody, V domains shown)
VH: B1 VH with D57G, D60S, S67D, S100D, T103F, A112Q
VL: B1 VL with S24L, A25P, S28R, F51M, K52Y, L53Q
With B4, in the assay with Bac-F, the dissociation constant Kd is 0.09 nM, the off-rate constant (koff) was found to be 4.07e-05 s⁻¹, the kon is 456000 M⁻¹ s⁻¹ and the number in parentheses after KD (fold against SYNAGIS = 1) worked out at 43 fold.

B5: P11d4 (monoclonal antibody) (antibody, V domains shown)
VH: B1 VH with A32P, D57G, D60H, S67D, S100D, T103F, F105W, A112Q
VL: B1 VL with A25P, S28R, F51M, K52R, F90G, L103V
With B5, in the assay with Bac-F, the equilibrium dissociation constant (Kd) came to 0.62 nM, the koff amounted to 0.000289 s⁻¹, the kon was determined as 466000 M⁻¹ s⁻¹ and the number in parentheses after KD (fold against SYNAGIS = 1) was determined as 6 fold.

B6: A12a6 (monoclonal antibody) (antibody, V domains shown)
VH: B1 VH with D57G, S67D, S100D, T103F, A112Q
VL: B1 VL with S28R, A54S, F90G, L103V
B6: in the assay with Bac-F, the Kd came out at 0.04 nM, the koff turned out to be 1.65e-05 s⁻¹, the kon was 460000 M⁻¹ s⁻¹ and the number in parentheses after KD (fold against SYNAGIS = 1) was determined as 98 fold.

B7: A1e9 (monoclonal antibody) (antibody, V domains shown)
VH: B1 VH with A32P, D57G, D60H, S67D, S100D, T103F, F105W, A112Q
VL: B1 VL with A25L, S28R, A54S, F90G, L103V
For B7, in the assay with Bac-F, the equilibrium dissociation constant (Kd) turned out to be 0.33 nM, the koff is 0.000143 s⁻¹, the kon worked out at 433000 M⁻¹ s⁻¹ and the number in parentheses after KD (fold against SYNAGIS = 1) came to 12 fold.

B8: L1-7E5 (Fab fragment) (Fab, V domains shown)
VH: B1 VH with S100D
VL: B1 VL with K52R, F90G
B8: in assay [1], the koff was 0.000192 s⁻¹ and 0.000331 s⁻¹ and 0.000229 s⁻¹.

B9: P12f4 (monoclonal antibody) (antibody, V domains shown)
VH: B1 VH with A32P, D57G, D60H, S67D, S100D, T103F, A112Q
VL: B1 VL with A25L, S28R, F51R, K52G, A54P, F90G, L103V
With B9, in the assay with Bac-F, the Kd turned out to be 0.11 nM, the koff was determined as 5.55e-05 s⁻¹, the on-rate (kon) came out at 495000 M⁻¹ s⁻¹ and the number in parentheses after KD (fold against SYNAGIS = 1) turned out to be 35 fold.

B10: A13c4 (monoclonal antibody) (antibody, V domains shown)
VH: B1 VH with D57G, D60S, S67D, S100D, T103F, A112Q
VL: B1 VL with A25L, S28R, F51M, K52Y, L53Q, A54S, F90G, L103V
Take B10: in the assay with Bac-F, the Kd was determined as 0.13 nM, the koff worked out at 3.96e-05 s⁻¹, the on-rate (kon) came out at 300000 M⁻¹ s⁻¹ and the number in parentheses after KD (fold against SYNAGIS = 1) came to 30 fold.

B11: AFFF (Fab fragment) (Fab, V domains shown)
VH: B1 VH
VL: B1 VL
B11: in assay [1], the koff was 0.000245 s⁻¹ and 0.000446 s⁻¹ and 0.000268 s⁻¹; the kon was 212000 M⁻¹ s⁻¹ and 156000 M⁻¹ s⁻¹ and 186000 M⁻¹ s⁻¹.
